This note sets out measurements from paper PMC2064105 (The Journal of Cell Biology, 2007).

The target in this experiment is T1, purified recombinant Kap121p (S. cerevisiae, UniProt P32337 1-1089).
T1 sequence (looked up): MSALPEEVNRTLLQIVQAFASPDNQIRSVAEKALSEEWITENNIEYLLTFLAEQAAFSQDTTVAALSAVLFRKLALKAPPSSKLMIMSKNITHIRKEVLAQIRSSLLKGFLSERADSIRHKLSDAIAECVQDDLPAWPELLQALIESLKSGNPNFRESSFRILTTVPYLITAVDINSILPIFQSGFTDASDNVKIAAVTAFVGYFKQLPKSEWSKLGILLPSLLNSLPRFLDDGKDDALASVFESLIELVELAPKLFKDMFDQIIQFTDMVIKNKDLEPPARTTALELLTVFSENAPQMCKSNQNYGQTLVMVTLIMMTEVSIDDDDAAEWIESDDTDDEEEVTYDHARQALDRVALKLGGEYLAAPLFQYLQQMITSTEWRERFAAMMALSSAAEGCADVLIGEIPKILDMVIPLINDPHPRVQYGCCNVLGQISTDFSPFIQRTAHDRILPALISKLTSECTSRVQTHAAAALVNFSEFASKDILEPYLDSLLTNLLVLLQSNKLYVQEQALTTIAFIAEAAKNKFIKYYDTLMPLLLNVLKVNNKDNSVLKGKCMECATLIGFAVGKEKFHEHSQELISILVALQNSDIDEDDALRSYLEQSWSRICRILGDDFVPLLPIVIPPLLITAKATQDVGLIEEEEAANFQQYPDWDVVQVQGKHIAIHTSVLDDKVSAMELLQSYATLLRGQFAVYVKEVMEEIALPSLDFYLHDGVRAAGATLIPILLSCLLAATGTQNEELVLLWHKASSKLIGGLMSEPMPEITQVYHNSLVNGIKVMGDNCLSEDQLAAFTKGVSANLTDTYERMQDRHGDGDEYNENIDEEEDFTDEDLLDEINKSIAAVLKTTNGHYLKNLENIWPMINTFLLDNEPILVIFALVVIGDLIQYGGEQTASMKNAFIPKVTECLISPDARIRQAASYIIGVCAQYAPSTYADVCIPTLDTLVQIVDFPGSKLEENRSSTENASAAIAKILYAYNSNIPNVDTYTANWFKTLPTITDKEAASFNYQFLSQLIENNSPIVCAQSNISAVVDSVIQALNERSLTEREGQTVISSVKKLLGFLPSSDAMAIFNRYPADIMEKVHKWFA
The experiment can be described thus: pull-down.

B1: purified recombinant Nup53p (natural protein, S. cerevisiae, UniProt Q03790 1-475, looked up)
chain: MADLQKQENSSRFTNVSVIAPESQGQHEQQKQQEQLEQQKQPTGLLKGLNGFPSAPQPLFMEDPPSTVSGELNDNPAWFNNPRKRAIPNSIIKRSNGQSLSPVRSDSADVPAFSNSNGFNNVTFGSKKDPRILKNVSPNDNNSANNNAHSSDLGTVVFDSNEAPPKTSLADWQKEDGIFSSKTDNIEDPNLSSNITFDGKPTATPSPFRPLEKTSRILNFFDKNTKTTPNTASSEASAGSKEGASTNWDDHAIIIFGYPETIANSIILHFANFGEILEDFRVIKDFKKLNSKNMSKSPSLTAQKYPIYTGDGWVKLTYKSELSKSRALQENGIIMNGTLIGCVSYSPAALKQLASLKKSEEIINNKTSSQTSLSSKDLSNYRKTEGIFEKAKAKAVTSKVRNAEFKVSKNSTSFKNPRRLEIKDGRSLFLRNRGKIHSGVLSSIESDLKKREQASKSKKSWLNRLNNWLFGWNDL
B1: the binding result was “binds”.
